Source: publication PMC9703140 (Nature chemical biology, 2022)

Assays:
[1] = target: T1, MHC-related protein 1 (MR1), hpMR1 (Homo sapiens, UniProt Q95460); experiment: 1D […] NMR titration; assay type: binding
[2] = target: TAPBPR^WT (luminal domain of TAPBPR C94S); experiment: SPR
[3] = target: T1, MHC-related protein 1 (MR1), hpMR1; experiment: DSF of refolded complex; assay type: binding

Q: How did the Kd [1] turn out when `O=C(O)Cc1ccccc1Nc1c(Cl)cc(F)cc1Cl` [19F-DCF, 2-(2-((2,6-dichloro-4-fluorophenyl)amino)phenyl)acetic acid] was run?
A: 36.1 µM

Q: “Ac-6-FP loaded hMR1/hβ2m (wild type) (from UniProt P61769 21-119) (complex)” was tested. Which Kd [2] did it give?
A: 100 µM

Q: With “Ac-6-FP loaded hMR1 C262S/hβ2m (from UniProt P61769 21-119) (complex)” as the compound, how does the Kd [2] read?
A: 100 µM

Q: With `O=Cc1c(O)ccc2ccccc12` [2OH1NA, 2-hydroxy-1-naphthaldehyde] as the compound, how does the “DSF of refolded complex (Tm 55.3 °C); NMR methyl HMQC” value [3] read?
A: 55.3 °C

Q: For “Ac-6-FP–hpMR1–bβ2m (from UniProt Q95460 23-290; P01888 21-118) (complex)”, which Kd [2] is on record?
A: 104 µM

Q: Which Kd [2] does the source give for “UV-irradiated HLA-A*02:01/hβ2m (empty, peptide-deficient) (from UniProt P61769 21-119) (complex)” here?
A: 0.082 µM

Q: For “TAX9/HLA-A*02:01/hβ2m (from UniProt P61769 21-119) (peptide-MHC)”, which Kd [2] is on record?
A: 18.5 µM
